Measured values reported in PMC10540216, “Activity Guided Azide-methyllysine Photo-trapping for Substrate Profiling of Lysine Demethylases” (Journal of the American Chemical Society, 2023).
Where no end group is shown, it is not given here.

Target: T1, CBX1 chromodomain
T1 construct: Chromodomain of Chromobox protein 1 (CBX1); Expression, purification and construct limits are in the Supporting Information; also called Chromobox protein 1
Assay: ITC; CBX1 chromodomain and eIF4A3 K374me0/1/2/3 peptides
Settings: both partners purified

Row | Binder | Kd
1 | GRSGRYGRKGVAINFVK (also: trimethyllysine at K374) [eIF4A3-K374me3 peptide 13] | 23.2 ± 2 µM
2 | GRSGRYGRKGVAINFVK (also: dimethyllysine at K374) [eIF4A3-K374me2 peptide 23] | 95.2 ± 1.4 µM
